Here are results for one variant from IntAct's records for PubMed 11438675.

The labels stand for the following.
B1: Nibrin (Homo sapiens), O60934 (parent)
chain: MWKLLPAAGPAGGEPYRLLTGVEYVVGRKNCAILIENDQSISRNHAVLTANFSVTNLSQTDEIPVLTLKDNSKYGTFVNEEKMQNGFSRTLKSGDGITFGVFGSKFRIEYEPLVACSSCLDVSGKTALNQAILQLGGFTVNNWTEECTHLVMVSVKVTIKTICALICGRPIVKPEYFTEFLKAVESKKQPPQIESFYPPLDEPSIGSKNVDLSGRQERKQIFKGKTFIFLNAKQHKKLSSAVVFGGGEARLITEENEEEHNFFLAPGTCVVDTGITNSQTLIPDCQKKWIQSIMDMLQRQGLRPIPEAEIGLAVIFMTTKNYCDPQGHPSTGLKTTTPGPSLSQGVSVDEKLMPSAPVNTTTYVADTESEQADTWDLSERPKEIKVSKMEQKFRMLSQDAPTVKESCKTSSNNNSMVSNTLAKMRIPNYQLSPTKLPSINKSKDRASQQQQTNSIRNYFQPSTKKRERDEENQEMSSCKSARIETSCSLLEQTQPATPSLWKNKEQHLSENEPVDTNSDNNLFTDTDLKSIVKNSASKSHAAEKLRSNKKREMDDVAIEDEVLEQLFKDTKPELEIDVKVQKQEEDVNVRKRPRMDIETNDTFSDEAVPESSKISQENEIGKKRELKEDSLWSAKEISNNDKLQDDSEMLPKKLLLTEFRSLVIKNSTSRNPSGINDDYGQLKNFKKFKKVTYPGAGKLPHIIGGSDLIAHHARKNTELEEWLRQEMEVQNQHAKEESLADDLFRYNPYLKRRR

The variants in the test derive from B1. Particulars: with chk2_human CHEK2, O96017.
Sequence of chk2_human CHEK2, O96017 (O96017 whole entry): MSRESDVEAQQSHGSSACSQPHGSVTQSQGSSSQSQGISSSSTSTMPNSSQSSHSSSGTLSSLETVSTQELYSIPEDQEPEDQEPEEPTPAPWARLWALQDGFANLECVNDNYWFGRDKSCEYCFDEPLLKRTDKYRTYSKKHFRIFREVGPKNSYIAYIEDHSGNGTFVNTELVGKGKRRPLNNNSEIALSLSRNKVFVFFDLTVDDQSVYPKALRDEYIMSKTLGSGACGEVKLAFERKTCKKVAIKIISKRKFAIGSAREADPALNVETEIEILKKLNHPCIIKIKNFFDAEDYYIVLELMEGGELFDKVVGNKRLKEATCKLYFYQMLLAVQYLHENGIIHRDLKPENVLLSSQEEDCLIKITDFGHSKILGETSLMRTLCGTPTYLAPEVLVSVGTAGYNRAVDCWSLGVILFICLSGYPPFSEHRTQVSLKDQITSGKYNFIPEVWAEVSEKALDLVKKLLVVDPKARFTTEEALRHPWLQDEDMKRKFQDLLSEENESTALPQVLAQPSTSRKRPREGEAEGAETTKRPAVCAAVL
S343A: the “effect of a mutation on the interaction” value is on record as “decreasing interaction”.
